Experimental data published in publication PMC3072391.
Where two headings read alike, the source gives them in different places.

Legend:
[1] = target: NS5BΔ21-5a fused to cyan or citrine fluorescent protein (hepatitis C virus genotype 5a (patient isolate)); test: FRET or BRET; in vitro; purified NS5BΔ21-cyan and NS5BΔ21-citrine of the same genotype mixed equimolar, 50 nM each; 10 mM NaCl and 4.5 mM Mg(CH3COO)2; excitation 432 nm, FRET ratio = emission 530 nm/478 nm, normalised against NS5BΔ21-1b; twelve independent experiments
[2] = target: NS5BΔ21-5a fused to cyan or citrine fluorescent protein (hepatitis C virus genotype 5a (patient isolate)); test: as above; remark: listed apart in the source

## NS5BΔ21-5a fused to cyan or citrine fluorescent protein (enzyme)
[1]
  FRET ratio relative to NS5BΔ21-1b: 40%
[2]
  FRET ratio relative to NS5BΔ21-1b: < 50%
